Experimental data published in patent USRE42211, “Relating to binding proteins for recognition of DNA” (Gendaq, Limited).

Biological target: anti-BCR-ABL three-finger peptide 1A-2A-3B (synthetic)
Test: phage ELISA after capture on streptavidin beads; +/-0.4e-7 M; Zn, PBS, 20 C
Details: source form inferred; label: 5'-biotin

Sequence of anti-BCR-ABL three-finger peptide 1A-2A-3B (synthetic) (chain, as listed by the source): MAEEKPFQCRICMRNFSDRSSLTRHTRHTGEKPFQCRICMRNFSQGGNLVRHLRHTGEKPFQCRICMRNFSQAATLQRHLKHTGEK

B1: p190 BCR-ABL cDNA fusion site oligo (dsDNA)
DNA 1: GAGACGCAGAAGCCCTTC
DNA 2: GAAGGGCTTCTGCGTCTC
With B1 the Kd was 0.62 µM.
